This passage reports kcat, kcat/KM and KM of FX activation by FIXa in the Xase complex (FVIIIa, PC/PS vesicles, Ca2+) results from patent US20210230570.

B1: FIXa-Y155F/R318Y/T343R/R403E (protein)
chain 1: YNSGKLEEFVQGNLERECMEEKCSFEEAREVFENTERTTEFWKQYVDGDQCESNPCLNGGSCKDDINSYECWCPFGFEGKNCELDVTCNIKNGRCEQFCKNSADNKVVCSCTEGYRLAENQKSCEPAVPFPCGRVSVSQTSKLTR
chain 2: VVGGEDAKPGQFPWQVVLNGKVDAFCGGSIVNEKWIVTAAHCVETGVKITVVAGEHNIEETEHTEQKRNVIRIIPHHNYNAAINKYNHDIALLELDEPLVLNSYVTPICIADKEYTNIFLKFGSGYVSGWGRVFHKGYSALVLQYLRVPLVDRATCLRSTKFRIYNNMFCAGFHEGGRDSCQGDSGGPHVTEVEGTSFLTGIISWGEECAMKGKYGIYTKVSEYVNWIKEKTKLT
B2: FIXa-Y155F/T343R/R403E/E410N (protein)
chain 1: YNSGKLEEFVQGNLERECMEEKCSFEEAREVFENTERTTEFWKQYVDGDQCESNPCLNGGSCKDDINSYECWCPFGFEGKNCELDVTCNIKNGRCEQFCKNSADNKVVCSCTEGYRLAENQKSCEPAVPFPCGRVSVSQTSKLTR
chain 2: VVGGEDAKPGQFPWQVVLNGKVDAFCGGSIVNEKWIVTAAHCVETGVKITVVAGEHNIEETEHTEQKRNVIRIIPHHNYNAAINKYNHDIALLELDEPLVLNSYVTPICIADKEYTNIFLKFGSGYVSGWGRVFHKGRSALVLQYLRVPLVDRATCLRSTKFRIYNNMFCAGFHEGGRDSCQGDSGGPHVTEVEGTSFLTGIISWGEECAMKGKYGIYTKVSEYVNWIKNKTKLT
B3: FIXa variant D203N/F205T/R338A (mature FIX numbering) (protein)
chain 1: YNSGKLEEFVQGNLERECMEEKCSFEEAREVFENTERTTEFWKQYVDGDQCESNPCLNGGSCKDDINSYECWCPFGFEGKNCELDVTCNIKNGRCEQFCKNSADNKVVCSCTEGYRLAENQKSCEPAVPFPCGRVSVSQTSKLTR
chain 2: VVGGEDAKPGQFPWQVVLNGKVNATCGGSIVNEKWIVTAAHCVETGVKITVVAGEHNIEETEHTEQKRNVIRIIPHHNYNAAINKYNHDIALLELDEPLVLNSYVTPICIADKEYTNIFLKFGSGYVSGWGRVFHKGRSALVLQYLRVPLVDRATCLASTKFTIYNNMFCAGFHEGGRDSCQGDSGGPHVTEVEGTSFLTGIISWGEECAMKGKYGIYTKVSRYVNWIKEKTKLT
B4: FIXa variant Y155F/R338E/R403E/E410N (mature FIX numbering) (protein)
chain 1: YNSGKLEEFVQGNLERECMEEKCSFEEAREVFENTERTTEFWKQYVDGDQCESNPCLNGGSCKDDINSYECWCPFGFEGKNCELDVTCNIKNGRCEQFCKNSADNKVVCSCTEGYRLAENQKSCEPAVPFPCGRVSVSQTSKLTR
chain 2: VVGGEDAKPGQFPWQVVLNGKVDAFCGGSIVNEKWIVTAAHCVETGVKITVVAGEHNIEETEHTEQKRNVIRIIPHHNYNAAINKYNHDIALLELDEPLVLNSYVTPICIADKEYTNIFLKFGSGYVSGWGRVFHKGRSALVLQYLRVPLVDRATCLESTKFTIYNNMFCAGFHEGGRDSCQGDSGGPHVTEVEGTSFLTGIISWGEECAMKGKYGIYTKVSEYVNWIKNKTKLT
B5: FIXa variant D203N/F205T/E410N (mature FIX numbering) (protein)
chain 1: YNSGKLEEFVQGNLERECMEEKCSFEEAREVFENTERTTEFWKQYVDGDQCESNPCLNGGSCKDDINSYECWCPFGFEGKNCELDVTCNIKNGRCEQFCKNSADNKVVCSCTEGYRLAENQKSCEPAVPFPCGRVSVSQTSKLTR
chain 2: VVGGEDAKPGQFPWQVVLNGKVNATCGGSIVNEKWIVTAAHCVETGVKITVVAGEHNIEETEHTEQKRNVIRIIPHHNYNAAINKYNHDIALLELDEPLVLNSYVTPICIADKEYTNIFLKFGSGYVSGWGRVFHKGRSALVLQYLRVPLVDRATCLRSTKFTIYNNMFCAGFHEGGRDSCQGDSGGPHVTEVEGTSFLTGIISWGEECAMKGKYGIYTKVSRYVNWIKNKTKLT
B6: FIXa variant Y155F/R318Y/R338E/R403E (mature FIX numbering) (protein)
chain 1: YNSGKLEEFVQGNLERECMEEKCSFEEAREVFENTERTTEFWKQYVDGDQCESNPCLNGGSCKDDINSYECWCPFGFEGKNCELDVTCNIKNGRCEQFCKNSADNKVVCSCTEGYRLAENQKSCEPAVPFPCGRVSVSQTSKLTR
chain 2: VVGGEDAKPGQFPWQVVLNGKVDAFCGGSIVNEKWIVTAAHCVETGVKITVVAGEHNIEETEHTEQKRNVIRIIPHHNYNAAINKYNHDIALLELDEPLVLNSYVTPICIADKEYTNIFLKFGSGYVSGWGRVFHKGYSALVLQYLRVPLVDRATCLESTKFTIYNNMFCAGFHEGGRDSCQGDSGGPHVTEVEGTSFLTGIISWGEECAMKGKYGIYTKVSEYVNWIKEKTKLT
B7: FIXa variant R338E/R403E/E410N (mature FIX numbering) (protein)
chain 1: YNSGKLEEFVQGNLERECMEEKCSFEEAREVFENTERTTEFWKQYVDGDQCESNPCLNGGSCKDDINSYECWCPFGFEGKNCELDVTCNIKNGRCEQFCKNSADNKVVCSCTEGYRLAENQKSCEPAVPFPCGRVSVSQTSKLTR
chain 2: VVGGEDAKPGQFPWQVVLNGKVDAFCGGSIVNEKWIVTAAHCVETGVKITVVAGEHNIEETEHTEQKRNVIRIIPHHNYNAAINKYNHDIALLELDEPLVLNSYVTPICIADKEYTNIFLKFGSGYVSGWGRVFHKGRSALVLQYLRVPLVDRATCLESTKFTIYNNMFCAGFHEGGRDSCQGDSGGPHVTEVEGTSFLTGIISWGEECAMKGKYGIYTKVSEYVNWIKNKTKLT
B8: FIXa variant R318Y/R338E/R403E (mature FIX numbering) (protein)
chain 1: YNSGKLEEFVQGNLERECMEEKCSFEEAREVFENTERTTEFWKQYVDGDQCESNPCLNGGSCKDDINSYECWCPFGFEGKNCELDVTCNIKNGRCEQFCKNSADNKVVCSCTEGYRLAENQKSCEPAVPFPCGRVSVSQTSKLTR
chain 2: VVGGEDAKPGQFPWQVVLNGKVDAFCGGSIVNEKWIVTAAHCVETGVKITVVAGEHNIEETEHTEQKRNVIRIIPHHNYNAAINKYNHDIALLELDEPLVLNSYVTPICIADKEYTNIFLKFGSGYVSGWGRVFHKGYSALVLQYLRVPLVDRATCLESTKFTIYNNMFCAGFHEGGRDSCQGDSGGPHVTEVEGTSFLTGIISWGEECAMKGKYGIYTKVSEYVNWIKEKTKLT
B9: FIXa variant D203N/F205T/K228N (mature FIX numbering) (protein)
chain 1: YNSGKLEEFVQGNLERECMEEKCSFEEAREVFENTERTTEFWKQYVDGDQCESNPCLNGGSCKDDINSYECWCPFGFEGKNCELDVTCNIKNGRCEQFCKNSADNKVVCSCTEGYRLAENQKSCEPAVPFPCGRVSVSQTSKLTR
chain 2: VVGGEDAKPGQFPWQVVLNGKVNATCGGSIVNEKWIVTAAHCVETGVNITVVAGEHNIEETEHTEQKRNVIRIIPHHNYNAAINKYNHDIALLELDEPLVLNSYVTPICIADKEYTNIFLKFGSGYVSGWGRVFHKGRSALVLQYLRVPLVDRATCLRSTKFTIYNNMFCAGFHEGGRDSCQGDSGGPHVTEVEGTSFLTGIISWGEECAMKGKYGIYTKVSRYVNWIKEKTKLT
B10: FIXa variant D203N/F205T/R338E (mature FIX numbering) (protein)
chain 1: YNSGKLEEFVQGNLERECMEEKCSFEEAREVFENTERTTEFWKQYVDGDQCESNPCLNGGSCKDDINSYECWCPFGFEGKNCELDVTCNIKNGRCEQFCKNSADNKVVCSCTEGYRLAENQKSCEPAVPFPCGRVSVSQTSKLTR
chain 2: VVGGEDAKPGQFPWQVVLNGKVNATCGGSIVNEKWIVTAAHCVETGVKITVVAGEHNIEETEHTEQKRNVIRIIPHHNYNAAINKYNHDIALLELDEPLVLNSYVTPICIADKEYTNIFLKFGSGYVSGWGRVFHKGRSALVLQYLRVPLVDRATCLESTKFTIYNNMFCAGFHEGGRDSCQGDSGGPHVTEVEGTSFLTGIISWGEECAMKGKYGIYTKVSRYVNWIKEKTKLT

In this data set the target is Factor X (FX), P00742.
Sequence of Factor X (FX), P00742 (P00742 whole entry, looked up): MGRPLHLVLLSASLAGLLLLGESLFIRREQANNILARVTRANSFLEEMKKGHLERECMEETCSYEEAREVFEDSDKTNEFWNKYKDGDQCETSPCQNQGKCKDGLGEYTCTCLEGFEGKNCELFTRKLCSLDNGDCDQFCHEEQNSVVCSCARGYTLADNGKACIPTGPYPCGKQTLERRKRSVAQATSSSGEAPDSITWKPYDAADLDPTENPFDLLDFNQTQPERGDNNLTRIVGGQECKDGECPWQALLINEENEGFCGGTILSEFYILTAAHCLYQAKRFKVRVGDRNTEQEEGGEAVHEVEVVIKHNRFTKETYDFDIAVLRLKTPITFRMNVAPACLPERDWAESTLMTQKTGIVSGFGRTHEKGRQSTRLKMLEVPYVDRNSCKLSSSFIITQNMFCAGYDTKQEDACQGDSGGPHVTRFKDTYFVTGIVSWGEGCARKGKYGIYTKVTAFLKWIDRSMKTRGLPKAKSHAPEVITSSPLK
Usually kcat stands for the maximal rate divided by the concentration of active sites. Broadly, the kcat/KM is the second-order rate constant that governs catalysis at low substrate concentration. For the protein B1, the kcat came out at 5 s⁻¹ and the kcat/KM was 7.1e+07 M⁻¹ s⁻¹.
As for B2, the kcat was determined as 6.6 s⁻¹ and the kcat/KM is 1.5e+08 M⁻¹ s⁻¹.
As for B3, the KM of FX activation by FIXa in the Xase complex (FVIIIa, PC/PS vesicles, Ca2+) was determined as 0.0385 µM.
For the protein B4, the KM of FX activation by FIXa in the Xase complex (FVIIIa, PC/PS vesicles, Ca2+) is 0.0336 µM.
For the protein B5, the KM of FX activation by FIXa in the Xase complex (FVIIIa, PC/PS vesicles, Ca2+) was 0.0455 µM.
In the case of B6, the KM of FX activation by FIXa in the Xase complex (FVIIIa, PC/PS vesicles, Ca2+) was determined as 0.0671 µM.
The same measure, in the same setting: in the case of B7 it was 0.0367 µM; in that of B8, 0.0597 µM; in that of B9, 0.0399 µM.
Turning to B10, the KM of FX activation by FIXa in the Xase complex (FVIIIa, PC/PS vesicles, Ca2+) is 0.0241 µM.
